Source: patent US20230287046A1, “MOLECULES TARGETING PROTEINS” (AELIN THERAPEUTICS, priority 2020, published 2023)
Where a chain is given by its changes, count along the chain named. Where no end group is shown, it is not given here.

Assays:
G12C mutant KRAS = biological target: T1, G12C mutant KRAS (Homo sapiens, UniProt P01116, G12C); experiment: In vitro translation assay with streptavidin pull-down, KRAS G12C; assay type: binding; conditions: 10 μM biotinylated pept-in, Western blot
T1 construct: made in house; host or cells: cell-free: PURExpress In Vitro Protein Synthesis Kit (New England Biolabs)
Protocol: (§1) In vitro translation assays were performed using the PURExpress® In Vitro Protein Synthesis Kit (New England Biolabs) according to the manufacturer's instructions. Briefly, linear DNA fragments containing T7 promotor and terminator sequences flanking the KRAS coding sequence were generated using PCR and purified using the MinElute PCR Purification Kit (Qiagen). 250 ng of linear DNA was subsequently used for the in vitro translation reaction, which was performed for 2 hours at 37° C. with shaking (1000 rpm). Indicated biotinylated pept-ins were mixed in the translation reactions from a 5 mM stock solution in 6M Urea to a final concentration of 10 μM. Upon completion of the translation reaction, biotinylated pept-ins were captured from the reaction mix using Streptavidin coated beads (Pierce) during 90 min at room temperature. Beads were next washed with TBS containing 0.1% Tween 20 and bound proteins were finally boiled off in 1×SDS loading dye (Bio-Rad) in TBS buffer. Proteins were resolved using Any kD 15-well Mini-PROTEAN gels (Bio-Rad) during SDS-PAGE and probed for KRAS after Western blotting using a mouse monoclonal KRAS-specific antibody (SC-30, Santa Cruz Biotechnology), which was detected with an HRP-coupled anti-mouse secondary antibody using chemiluminescence on a Bio-Rad Chemidoc MP imaging instrument. […]

KRAS G13D mutant = biological target: T2, KRAS G13D mutant (Homo sapiens, UniProt P01116, G13D); experiment: In vitro translation assay with streptavidin pull-down, KRAS G13D; assay type: binding; conditions: 10 μM biotinylated pept-in, Western blot
T2 construct: made in house; host or cells: cell-free: PURExpress In Vitro Protein Synthesis Kit (New England Biolabs)
Protocol: as §1

G12V mutant KRAS = biological target: T3, G12V mutant KRAS (Homo sapiens, UniProt P01116, G12V); experiment: In vitro translation assay with streptavidin pull-down, KRAS G12V; assay type: binding; conditions: 10 μM biotinylated pept-in, Western blot
T3 construct: made in house; host or cells: cell-free: PURExpress In Vitro Protein Synthesis Kit (New England Biolabs)
Protocol: In vitro translation assays were performed using the PURExpress® In Vitro Protein Synthesis Kit (New England Biolabs) according to the manufacturer's instructions. Briefly, linear DNA fragments containing T7 promotor and terminator sequences flanking the KRAS coding sequence were generated using PCR and purified using the MinElute PCR Purification Kit (Qiagen). 250 ng of linear DNA was subsequently used for the in vitro translation reaction, which was performed for 2 hours at 37° C. with shaking (1000 rpm). Indicated biotinylated pept-ins were mixed in the translation reactions from a 5 mM stock solution in 6M Urea to a final concentration of 10 μM. Upon completion of the translation reaction, biotinylated pept-ins were captured from the reaction mix using Streptavidin coated beads (Pierce) during 90 min at room temperature. Beads were next washed with TBS containing 0.1% Tween 20 and bound proteins were finally boiled off in 1×SDS loading dye (Bio-Rad) in TBS buffer. Proteins were resolved using Any kD 15-well Mini-PROTEAN gels (Bio-Rad) during SDS-PAGE and probed for KRAS after Western blotting using a mouse monoclonal KRAS-specific antibody (SC-30, Santa Cruz Biotechnology), which was detected with an HRP-coupled anti-mouse secondary antibody using chemiluminescence on a Bio-Rad Chemidoc MP imaging instrument.
To mimic this in vitro, we devised an in vitro translation setup producing either wild-type or mutant KRAS (G12V, G12C, G12D or G13D) in the presence of biotinylated RAS-targeting pept-ins. This allowed us to perform a streptavidin pull-down to capture the biotinylated pept-ins from the translation reaction and perform SDS-PAGE and Western blotting to probe the pulled-down fraction for the presence of KRAS. The biotinylated version of pept-in 04-004-N001, i.e. 04-004-N011, which harbours an APR window sequence derived from a wild-type APR, is predicted to target all RAS proteins independently from their mutation status.

KRAS G12D mutant = biological target: T4, KRAS G12D mutant (Homo sapiens, UniProt P01116, G12D); experiment: In vitro translation assay with streptavidin pull-down, KRAS G12D; assay type: binding; conditions: 10 μM biotinylated pept-in, Western blot
T4 construct: made in house; host or cells: cell-free: PURExpress In Vitro Protein Synthesis Kit (New England Biolabs)
Protocol: as §1

[1] = biological target: T5, mCherry-tagged KRAS G12V in HeLa cells (Homo sapiens, UniProt P01116, G12V); experiment: Cellular fluorescent imaging in HeLa cells overexpressing mCherry-tagged KRAS G12V; assay type: cell-based; conditions: 75 min after treatment
T5 construct: expressed in transfected cells; host or cells: HeLa cells transduced with lentiviral particles
Protocol: Fluorescent cellular imaging was performed using HeLa cells that were transduced with lentiviral particles carrying a construct expressing KRAS G12V labeled N-terminally with mCherry. Cells were seeded in a black Gclear® Cellstar® F-bottom 96-well plates (Greiner) in 100 μL full growth medium. […] Next, cells were fixed, washed and counterstained with the nuclear dye NucBlue™ (containing Hoechst 33342). Images were captured on a Leica confocal microscope.
To complement the co-immunoprecipitation approach, we also used a cellular imaging approach to show target engagement. To this end, we generated a HeLa cell line overexpressing mCherry-tagged KRAS G12V and FITC-labelled versions of the RAS-targeting pept-ins.

ITK R29C = biological target: T6, ITK R29C (Homo sapiens, UniProt Q08881, R29C); experiment: ITK in vitro translation assay with streptavidin pull-down, R29C; conditions: 10 μM biotinylated pept-in, fraction binding normalized over vehicle
T6 construct: made in house; host or cells: cell-free: PURExpress In Vitro Protein Synthesis Kit (New England Biolabs)
T6 sequence (Q08881 1-620 R29C): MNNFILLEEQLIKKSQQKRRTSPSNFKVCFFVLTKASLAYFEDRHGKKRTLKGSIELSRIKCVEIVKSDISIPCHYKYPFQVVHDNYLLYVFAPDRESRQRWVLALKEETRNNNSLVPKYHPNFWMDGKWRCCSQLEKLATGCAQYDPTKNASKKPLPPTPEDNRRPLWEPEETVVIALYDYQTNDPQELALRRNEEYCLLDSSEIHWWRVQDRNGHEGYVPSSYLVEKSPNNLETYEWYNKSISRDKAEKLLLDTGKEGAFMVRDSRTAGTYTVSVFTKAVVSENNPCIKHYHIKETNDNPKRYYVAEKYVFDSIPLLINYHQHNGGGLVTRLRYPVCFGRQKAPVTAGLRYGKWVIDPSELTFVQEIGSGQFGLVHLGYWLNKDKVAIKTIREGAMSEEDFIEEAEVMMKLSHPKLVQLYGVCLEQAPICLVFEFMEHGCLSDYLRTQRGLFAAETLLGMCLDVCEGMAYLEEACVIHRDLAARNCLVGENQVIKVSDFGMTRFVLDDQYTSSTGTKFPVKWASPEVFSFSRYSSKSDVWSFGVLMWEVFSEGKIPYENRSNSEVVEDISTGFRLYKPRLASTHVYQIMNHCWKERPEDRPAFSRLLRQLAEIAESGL
Protocol: (§2) An in vitro translation approach was used to assess ITK mutant selective binding over wild-type for the 22-006-N001 and 22-018-N001 pept-ins. In particular, in vitro translation assays were performed using the PURExpress® In Vitro Protein Synthesis Kit (New England Biolabs) according to the manufacturer's instructions. Briefly, linear DNA fragments containing T7 promotor and terminator sequences flanking the […] (SEQ ID NO: 68)-tagged ITK coding sequence were generated using PCR and purified using the MinElute PCR Purification Kit (Qiagen). 250 ng of linear DNA was subsequently used for the in vitro translation reaction, which was performed for 2 hrs at 37° C. with shaking (1000 rpm). Indicated biotinylated pept-ins were mixed in the translation reactions from a 5 mM stock solution in 6M Urea to a final concentration of 10 μM. Upon completion of the translation reaction, biotinylated pept-ins were captured from the reaction mix using Streptavidin coated beads (Pierce) during 90 min at room temperature. Beads were next washed with TBS containing 0.1% Tween 20 and bound proteins were finally boiled off in 1×SDS loading dye (Bio-Rad) in TBS buffer. Proteins were resolved using Any kD 15-well Mini-PROTEAN gels (Bio-Rad) during SDS-PAGE and probed for ITK using a rabbit anti-[…] (SEQ ID NO: 68) tag antibody (Cell Signaling 14793) after Western blotting.

ITK R29L = biological target: T7, ITK R29L (Homo sapiens, UniProt Q08881, R29L); experiment: ITK in vitro translation assay with streptavidin pull-down, R29L; conditions: 10 μM biotinylated pept-in, fraction binding normalized over vehicle
T7 construct: made in house; host or cells: cell-free: PURExpress In Vitro Protein Synthesis Kit (New England Biolabs)
T7 sequence (Q08881 1-620 R29L): T6 sequence (Q08881 1-620 R29C) with C29L
Protocol: as §2

[2] = tested on: NCI-H441 spheroid cultures; experiment: Single-dose viability screen on NCI-H441 suspension spheroid cultures (3D, CellTiter Glo 3D); assay type: cell-based, human; conditions: NCI-H441 spheroids, single dose 25 μM, 5 days
Protocol: For the single-dose viability screen on spheroid cultures, 1000 cells were seeded per well in black Ultra-Low Attachment (ULA) round-bottom 96-well plates (Corning) in 75 μL full growth medium. The day after seeding, spheroids were treated by addition of 50 μl of full growth medium containing the indicated test compounds so that the final concentration after adding was 25 μM. Technical duplicates were included for all experimental pept-in conditions 5 days after treatment viability was assessed using the CellTiter Glo 3D reagent (Promega) according to the manufacturer's instructions, with the following adaptation: 80 μL of reagent was added per well. Readout was performed on a Clariostar plate reader (BMG). […]
As previous reports have shown that adherent growth of KRAS mutant cells lines might attenuate their sensitivity to KRAS inhibition or knockdown (Fujita-Sato et al. Cancer Res. 2015, vol. 75, 2851-62; Patricelli et al. Cancer Discov. 2016, vol. 6, 316-29; Vartanian et al. J Biol Chem. 2013, vol. 288, 2403-13), we complemented the screen on adherently growing NCI-H441 cells with a screen on suspension spheroid cultures of the same cell line. […] Viability of the spheroid cultures was determined after 5 days of exposure using the CellTiter Glo 3D reagent from Promega. […]

Substance: 04-004-N011: biotinylated version of pept-in 04-004-N001 (KLSVFAIKGSKLSVFAIK; also: biotinylated version of 04-004-N001)
- pull-down of KRAS G12C (G12C mutant KRAS): efficient pull-down
- binding to KRAS G13D (KRAS G13D mutant): less efficient
- pull-down of KRAS G12V (G12V mutant KRAS): efficient pull-down
- binding to KRAS G12D (KRAS G12D mutant): less efficient

Substance: 04-015-N032: RAS-targeting FITC-labelled version of pept-in 04-015-N001 (KVVVGAVGKGSKVVVGAVGK; also: FITC-labelled version of 04-015-N001)
- association with mCherry-labelled KRAS [1]: associates with mCherry-labelled KRAS

Substance: AKVCFFVKGSKVCFFVK (ITK pept-in) [22-006-N001]
- binding to ITK R29C over wild-type (ITK R29C): Selective binding to the mutant over wild-type

Substance: AKVLFFVKGSKVLFFVK (ITK pept-in) [22-018-N001]
- binding to ITK R29L over wild-type (ITK R29L): Selective binding to the mutant over wild-type

Substance: Ac-KLVVVGAVKGSKLVVVGAVK-NH2 [04-014-N001]
- activity in the spheroid setting [2]: did not display activity
